These binders were tested against T1, HLA-A*02:01 (peptide-receptive MHC class I monomer after UV cleavage of the UV-sensitive ligand) (human) (assay: UV ligand-exchange ELISA; exchange yield grade (+ >=10%, ++ >=20%, +++ >=50%, ++++ >=75%)).
T1 construct: MHC monomers loaded by UV-ligand exchange and captured on streptavidin plates
Summary of the method: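 Peptide–MHC complexes formed by UV-ligand exchange, cleaving a UV-sensitive peptide so the test peptide can bind. Exchange yield measured by ELISA: complexes captured on streptavidin-coated wells, diluted 100-fold, detected with HRP anti-β2m (1 h, 37 °C) and TMB at 450 nm, against refolded HLA-A*02:01/MLA-001 standards (15-500 ng/ml).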

Row | peptide exchange yield | binding result | Binder
1 | ≥ 75% | – | ALAPYLDLL [ALAPYLDLL (SEQ ID NO: 62)]
2 | 20 to 50% | – | TLLGFFLAKV [TLLGFFLAKV (SEQ ID NO: 4)]
3 | 50 to 75% | – | SLSFVSPSL [SLSFVSPSL (SEQ ID NO: 309)]
4 | – | binds | DIFDAMFSV [DIFDAMFSV (SEQ ID NO: 54)]
5 | 50 to 75% | – | FLVEEIFQT [FLVEEIFQT (SEQ ID NO: 46)]
6 | 50 to 75% | – | RLLEEEGVSL [RLLEEEGVSL (SEQ ID NO: 299)]
7 | 50 to 75% | – | SLLDQIPEM [SLLDQIPEM (SEQ ID NO: 308)]
8 | 50 to 75% | – | VLQGLTFTL [VLQGLTFTL (SEQ ID NO: 5)]
9 | 50 to 75% | – | SITAVTPLL [SITAVTPLL (SEQ ID NO: 285)]
10 | ≥ 75% | – | FVWEASHYL [FVWEASHYL (SEQ ID NO: 303)]
11 | 50 to 75% | – | HLTEDTPKV [HLTEDTPKV (SEQ ID NO: 286)]
12 | ≥ 75% | – | ILVEVDLVQA [ILVEVDLVQA (SEQ ID NO: 55)]
13 | ≥ 75% | – | YLQDLVERA [YLQDLVERA (SEQ ID NO: 42)]
14 | 50 to 75% | – | ILQNGLETL [ILQNGLETL (SEQ ID NO: 297)]
15 | ≥ 75% | – | SLLAANNLL [SLLAANNLL (SEQ ID NO: 289)]
16 | ≥ 75% | – | LLATVNVAL [LLATVNVAL (SEQ ID NO: 67)]
17 | 50 to 75% | – | RLHREVAQV [RLHREVAQV (SEQ ID NO: 59)]
18 | 50 to 75% | – | LLWEDGVTEA [LLWEDGVTEA (SEQ ID NO: 34)]
19 | 50 to 75% | – | ALIEEAYGL [ALIEEAYGL (SEQ ID NO: 63)]
20 | 50 to 75% | – | GLLPKLTAL [GLLPKLTAL (SEQ ID NO: 47)]
21 | ≥ 75% | – | ALTDVILCV [ALTDVILCV (SEQ ID NO: 298)]
22 | 50 to 75% | – | FILDDSALYL [FILDDSALYL (SEQ ID NO: 45)]
23 | ≥ 75% | – | TILGDPQILL [TILGDPQILL (SEQ ID NO: 49)]
24 | 50 to 75% | – | KILDEDLYI [KILDEDLYI (SEQ ID NO: 48)]

Row | peptide exchange yield | binding result | Binder
25 | 50 to 75% | – | ALIRLDDLFL [ALIRLDDLFL (SEQ ID NO: 304)]
26 | ≥ 75% | – | VLLEDVDAAFL [VLLEDVDAAFL (SEQ ID NO: 52)]
27 | 50 to 75% | – | YLHRQVAAV [YLHRQVAAV (SEQ ID NO: 311)]
28 | 50 to 75% | – | QLLPQGIVPAL [QLLPQGIVPAL (SEQ ID NO: 39)]
29 | 20 to 50% | – | LIDDKGTIKL [LIDDKGTIKL (SEQ ID NO: 314)]
30 | 50 to 75% | – | SLLIDVITV [SLLIDVITV (SEQ ID NO: 60)]
31 | 50 to 75% | – | NLTDVSPDL [NLTDVSPDL (SEQ ID NO: 65)]
32 | 50 to 75% | – | ALLEGVKNV [ALLEGVKNV (SEQ ID NO: 43)]
33 | 50 to 75% | – | VLGNALEGV [VLGNALEGV (SEQ ID NO: 37)]
34 | ≥ 75% | – | KLYDEESLL [KLYDEESLL (SEQ ID NO: 31)]
35 | 50 to 75% | – | FLLPVAVKL [FLLPVAVKL (SEQ ID NO: 307)]
36 | 50 to 75% | – | VILDIPLLFET [VILDIPLLFET (SEQ ID NO: 36)]
37 | 50 to 75% | – | RLAPEIVSA [RLAPEIVSA (SEQ ID NO: 288)]
38 | ≥ 75% | – | FLVEVSNDV [FLVEVSNDV (SEQ ID NO: 64)]
39 | 20 to 50% | – | YLTAEILELAGN [YLTAEILELAGN (SEQ ID NO: 38)]
40 | 50 to 75% | – | SLAELDEKISA [SLAELDEKISA (SEQ ID NO: 302)]
41 | ≥ 75% | – | SLLNKDLSL [SLLNKDLSL (SEQ ID NO: 61)]
42 | 50 to 75% | – | VLNEDELPSV [VLNEDELPSV (SEQ ID NO: 32)]
43 | 50 to 75% | – | ILSDVTQGL [ILSDVTQGL (SEQ ID NO: 29)]
44 | 50 to 75% | – | LLLDGLIYL [LLLDGLIYL (SEQ ID NO: 50)]
45 | 50 to 75% | – | IVLERNPEL [IVLERNPEL (SEQ ID NO: 300)]
46 | ≥ 75% | – | FLNSVIVDL [FLNSVIVDL (SEQ ID NO: 40)]
47 | 50 to 75% | – | QLAPFLPQL [QLAPFLPQL (SEQ ID NO: 58)]
48 | 50 to 75% | – | LTIDTQYYL [LTIDTQYYL (SEQ ID NO: 3)]

Row | peptide exchange yield | binding result | Binder
49 | 50 to 75% | – | KLQEQIHRV [KLQEQIHRV (SEQ ID NO: 284)]
50 | 50 to 75% | – | IASPVIAAV [IASPVIAAV (SEQ ID NO: 290)]
51 | ≥ 75% | – | GLAMVEAISYV [GLAMVEAISYV (SEQ ID NO: 293)]
52 | ≥ 75% | – | KLAPIPVEL [KLAPIPVEL (SEQ ID NO: 66)]
53 | 50 to 75% | – | VMAEAPPGV [VMAEAPPGV (SEQ ID NO: 310)]
54 | ≥ 75% | – | KLYGPEGLELV [KLYGPEGLELV (SEQ ID NO: 294)]
55 | 50 to 75% | – | ILSTLDVEL [ILSTLDVEL (SEQ ID NO: 30)]
56 | 50 to 75% | – | FIIEEQSFL [FIIEEQSFL (SEQ ID NO: 44)]
57 | ≥ 75% | – | ILMGHSLYM [ILMGHSLYM (SEQ ID NO: 287)]
58 | 50 to 75% | – | LQFDGIHVV [LQFDGIHVV (SEQ ID NO: 301)]
59 | 50 to 75% | – | TLITLPLLFL [TLITLPLLFL (SEQ ID NO: 6)]
60 | ≥ 75% | – | LQIGDFVSV [LQIGDFVSV (SEQ ID NO: 57)]
61 | 50 to 75% | – | AMLAQQMQL [AMLAQQMQL (SEQ ID NO: 305)]
62 | 50 to 75% | – | KLINSQISL [KLINSQISL (SEQ ID NO: 292)]
63 | 50 to 75% | – | AQVALVNEV [AQVALVNEV (SEQ ID NO: 306)]
64 | 50 to 75% | – | SLSSERYYL [SLSSERYYL (SEQ ID NO: 35)]
65 | ≥ 75% | – | FILEPLYKI [FILEPLYKI (SEQ ID NO: 296)]
66 | 50 to 75% | – | KIIDTAGLSEA [KIIDTAGLSEA (SEQ ID NO: 291)]
67 | 50 to 75% | – | GLQDLLFSL [GLQDLLFSL (SEQ ID NO: 56)]
68 | ≥ 75% | – | FLREYFERL [FLREYFERL (SEQ ID NO: 53)]
69 | ≥ 75% | – | LLANIVPIAMLV [LLANIVPIAMLV (SEQ ID NO: 33)]
70 | 50 to 75% | – | SLAAVSQQL [SLAAVSQQL (SEQ ID NO: 295)]
71 | ≥ 75% | – | ILASIFETV [ILASIFETV (SEQ ID NO: 41)]
72 | ≥ 75% | – | SLLGNSPVL [SLLGNSPVL (SEQ ID NO: 51)]

Source: patent US20170296640A1 (IMMATICS BIOTECHNOLOGIES, published 2017)
